Numbered stars: 1 amine (or outer) side, 2 acyl side, 3 side chain; on linkers, the order of the positions; unused ones are H or OH. Bridge positions count the residues as written; N and C are the ends. Side chains are listed from the residue outwards. Ends that are not written are not given here. * marks the point of attachment. C20 diacid = O=C(O)CCCCCCCCCCCCCCCCCCC(=O)*; γGlu = O=C(O)[C@H](CCC(=O)[*:2])N[*:1]; AEEA = NCCOCCOCC(=O)O
B1: N^ε1-[2-[2-[2-[[(4S)-4-carboxy-4-(19-carboxynonadecanoylamino)butanoyl]amino]ethoxy]ethoxy]acetyl]-[His14,Arg17,Pro21,Pro27,Pro34]-h-amylin (peptide)
peptide: K([AEEA-γGlu-C20 diacid])CNTATCATQRLAHFLRHSSPNFGAIPSSTNVGPNTY-NH2
modifications: disulfide 2-7; N-terminus assumed
SMILES: CC[C@H](C)[C@H](NC(=O)[C@H](C)NC(=O)CNC(=O)[C@H](Cc1ccccc1)NC(=O)[C@H](CC(N)=O)NC(=O)[C@@H]1CCCN1C(=O)[C@H](CO)NC(=O)[C@H](CO)NC(=O)[C@H](Cc1c[nH]cn1)NC(=O)[C@H](CCCNC(=N)N)NC(=O)[C@H](CC(C)C)NC(=O)[C@H](Cc1ccccc1)NC(=O)[C@H](Cc1c[nH]cn1)NC(=O)[C@H](C)NC(=O)[C@H](CC(C)C)NC(=O)[C@H](CCCNC(=N)N)NC(=O)[C@H](CCC(N)=O)NC(=O)[C@@H](NC(=O)[C@H](C)NC(=O)[C@@H]1CSSC[C@H](NC(=O)[C@@H](N)CCCCNC(=O)COCCOCCNC(=O)CC[C@H](NC(=O)CCCCCCCCCCCCCCCCCCC(=O)O)C(=O)O)C(=O)N[C@@H](CC(N)=O)C(=O)N[C@@H]([C@@H](C)O)C(=O)N[C@@H](C)C(=O)N[C@@H]([C@@H](C)O)C(=O)N1)[C@@H](C)O)C(=O)N1CCC[C@H]1C(=O)N[C@@H](CO)C(=O)N[C@@H](CO)C(=O)N[C@H](C(=O)N[C@@H](CC(N)=O)C(=O)N[C@H](C(=O)NCC(=O)N1CCC[C@H]1C(=O)N[C@@H](CC(N)=O)C(=O)N[C@H](C(=O)N[C@@H](Cc1ccc(O)cc1)C(N)=O)[C@@H](C)O)C(C)C)[C@@H](C)O
notes: analogue of human amylin; also called compound 68
B2: N^ε1-[2-[2-[2-[[(4S)-4-carboxy-4-(19-carboxynonadecanoylamino)butanoyl]amino]ethoxy]ethoxy]acetyl]-[Ser14,Arg17,Pro21,Pro27,Pro31]-h-amylin (peptide)
peptide: K([AEEA-γGlu-C20 diacid])CNTATCATQRLASFLRHSSPNFGAIPSSTPVGSNTY-NH2
modifications: disulfide 2-7; N-terminus assumed
SMILES: CC[C@H](C)[C@H](NC(=O)[C@H](C)NC(=O)CNC(=O)[C@H](Cc1ccccc1)NC(=O)[C@H](CC(N)=O)NC(=O)[C@@H]1CCCN1C(=O)[C@H](CO)NC(=O)[C@H](CO)NC(=O)[C@H](Cc1c[nH]cn1)NC(=O)[C@H](CCCNC(=N)N)NC(=O)[C@H](CC(C)C)NC(=O)[C@H](Cc1ccccc1)NC(=O)[C@H](CO)NC(=O)[C@H](C)NC(=O)[C@H](CC(C)C)NC(=O)[C@H](CCCNC(=N)N)NC(=O)[C@H](CCC(N)=O)NC(=O)[C@@H](NC(=O)[C@H](C)NC(=O)[C@@H]1CSSC[C@H](NC(=O)[C@@H](N)CCCCNC(=O)COCCOCCNC(=O)CC[C@H](NC(=O)CCCCCCCCCCCCCCCCCCC(=O)O)C(=O)O)C(=O)N[C@@H](CC(N)=O)C(=O)N[C@@H]([C@@H](C)O)C(=O)N[C@@H](C)C(=O)N[C@@H]([C@@H](C)O)C(=O)N1)[C@@H](C)O)C(=O)N1CCC[C@H]1C(=O)N[C@@H](CO)C(=O)N[C@@H](CO)C(=O)N[C@H](C(=O)N1CCC[C@H]1C(=O)N[C@H](C(=O)NCC(=O)N[C@@H](CO)C(=O)N[C@@H](CC(N)=O)C(=O)N[C@H](C(=O)N[C@@H](Cc1ccc(O)cc1)C(N)=O)[C@@H](C)O)C(C)C)[C@@H](C)O
notes: analogue of human amylin; also called compound 73
B3: N^ε1-[(4S)-4-carboxy-4-(19-carboxynonadecanoylamino)butanoyl]-[Arg14,Arg17,Pro21,Pro27,Pro31]-h-amylin (peptide)
peptide: K([γGlu-C20 diacid])CNTATCATQRLARFLRHSSPNFGAIPSSTPVGSNTY-NH2
modifications: disulfide 2-7; N-terminus assumed
SMILES: CC[C@H](C)[C@H](NC(=O)[C@H](C)NC(=O)CNC(=O)[C@H](Cc1ccccc1)NC(=O)[C@H](CC(N)=O)NC(=O)[C@@H]1CCCN1C(=O)[C@H](CO)NC(=O)[C@H](CO)NC(=O)[C@H](Cc1c[nH]cn1)NC(=O)[C@H](CCCNC(=N)N)NC(=O)[C@H](CC(C)C)NC(=O)[C@H](Cc1ccccc1)NC(=O)[C@H](CCCNC(=N)N)NC(=O)[C@H](C)NC(=O)[C@H](CC(C)C)NC(=O)[C@H](CCCNC(=N)N)NC(=O)[C@H](CCC(N)=O)NC(=O)[C@@H](NC(=O)[C@H](C)NC(=O)[C@@H]1CSSC[C@H](NC(=O)[C@@H](N)CCCCNC(=O)CC[C@H](NC(=O)CCCCCCCCCCCCCCCCCCC(=O)O)C(=O)O)C(=O)N[C@@H](CC(N)=O)C(=O)N[C@@H]([C@@H](C)O)C(=O)N[C@@H](C)C(=O)N[C@@H]([C@@H](C)O)C(=O)N1)[C@@H](C)O)C(=O)N1CCC[C@H]1C(=O)N[C@@H](CO)C(=O)N[C@@H](CO)C(=O)N[C@H](C(=O)N1CCC[C@H]1C(=O)N[C@H](C(=O)NCC(=O)N[C@@H](CO)C(=O)N[C@@H](CC(N)=O)C(=O)N[C@H](C(=O)N[C@@H](Cc1ccc(O)cc1)C(N)=O)[C@@H](C)O)C(C)C)[C@@H](C)O
notes: analogue of human amylin; also called compound 63
B4: N^ε1-[2-[2-[2-[[(4S)-4-carboxy-4-(19-carboxynonadecanoylamino)butanoyl]amino]ethoxy]ethoxy]acetyl]-[Thr14,Arg17,Pro21,Pro27,Pro31]-h-amylin (peptide)
peptide: K([AEEA-γGlu-C20 diacid])CNTATCATQRLATFLRHSSPNFGAIPSSTPVGSNTY-NH2
modifications: disulfide 2-7; N-terminus assumed
SMILES: CC[C@H](C)[C@H](NC(=O)[C@H](C)NC(=O)CNC(=O)[C@H](Cc1ccccc1)NC(=O)[C@H](CC(N)=O)NC(=O)[C@@H]1CCCN1C(=O)[C@H](CO)NC(=O)[C@H](CO)NC(=O)[C@H](Cc1c[nH]cn1)NC(=O)[C@H](CCCNC(=N)N)NC(=O)[C@H](CC(C)C)NC(=O)[C@H](Cc1ccccc1)NC(=O)[C@@H](NC(=O)[C@H](C)NC(=O)[C@H](CC(C)C)NC(=O)[C@H](CCCNC(=N)N)NC(=O)[C@H](CCC(N)=O)NC(=O)[C@@H](NC(=O)[C@H](C)NC(=O)[C@@H]1CSSC[C@H](NC(=O)[C@@H](N)CCCCNC(=O)COCCOCCNC(=O)CC[C@H](NC(=O)CCCCCCCCCCCCCCCCCCC(=O)O)C(=O)O)C(=O)N[C@@H](CC(N)=O)C(=O)N[C@@H]([C@@H](C)O)C(=O)N[C@@H](C)C(=O)N[C@@H]([C@@H](C)O)C(=O)N1)[C@@H](C)O)[C@@H](C)O)C(=O)N1CCC[C@H]1C(=O)N[C@@H](CO)C(=O)N[C@@H](CO)C(=O)N[C@H](C(=O)N1CCC[C@H]1C(=O)N[C@H](C(=O)NCC(=O)N[C@@H](CO)C(=O)N[C@@H](CC(N)=O)C(=O)N[C@H](C(=O)N[C@@H](Cc1ccc(O)cc1)C(N)=O)[C@@H](C)O)C(C)C)[C@@H](C)O
notes: analogue of human amylin; also called compound 75
B5: N^ε1-[2-[2-[2-[[(4S)-4-carboxy-4-(19-carboxynonadecanoylamino)butanoyl]amino]ethoxy]ethoxy]acetyl]-[Lys14,Arg17,Pro21,Pro27,Pro31]-h-amylin (peptide)
peptide: K([AEEA-γGlu-C20 diacid])CNTATCATQRLAKFLRHSSPNFGAIPSSTPVGSNTY-NH2
modifications: disulfide 2-7; N-terminus assumed
SMILES: CC[C@H](C)[C@H](NC(=O)[C@H](C)NC(=O)CNC(=O)[C@H](Cc1ccccc1)NC(=O)[C@H](CC(N)=O)NC(=O)[C@@H]1CCCN1C(=O)[C@H](CO)NC(=O)[C@H](CO)NC(=O)[C@H](Cc1c[nH]cn1)NC(=O)[C@H](CCCNC(=N)N)NC(=O)[C@H](CC(C)C)NC(=O)[C@H](Cc1ccccc1)NC(=O)[C@H](CCCCN)NC(=O)[C@H](C)NC(=O)[C@H](CC(C)C)NC(=O)[C@H](CCCNC(=N)N)NC(=O)[C@H](CCC(N)=O)NC(=O)[C@@H](NC(=O)[C@H](C)NC(=O)[C@@H]1CSSC[C@H](NC(=O)[C@@H](N)CCCCNC(=O)COCCOCCNC(=O)CC[C@H](NC(=O)CCCCCCCCCCCCCCCCCCC(=O)O)C(=O)O)C(=O)N[C@@H](CC(N)=O)C(=O)N[C@@H]([C@@H](C)O)C(=O)N[C@@H](C)C(=O)N[C@@H]([C@@H](C)O)C(=O)N1)[C@@H](C)O)C(=O)N1CCC[C@H]1C(=O)N[C@@H](CO)C(=O)N[C@@H](CO)C(=O)N[C@H](C(=O)N1CCC[C@H]1C(=O)N[C@H](C(=O)NCC(=O)N[C@@H](CO)C(=O)N[C@@H](CC(N)=O)C(=O)N[C@H](C(=O)N[C@@H](Cc1ccc(O)cc1)C(N)=O)[C@@H](C)O)C(C)C)[C@@H](C)O
notes: analogue of human amylin; also called compound 74
B6: N^ε1-[2-[2-[2-[[(4S)-4-carboxy-4-(19-carboxynonadecanoylamino)butanoyl]amino]ethoxy]ethoxy]acetyl]-[His14,Arg17,Pro21,Pro27]-h-amylin (peptide)
peptide: K([AEEA-γGlu-C20 diacid])CNTATCATQRLAHFLRHSSPNFGAIPSSTNVGSNTY-NH2
modifications: disulfide 2-7; N-terminus assumed
SMILES: CC[C@H](C)[C@H](NC(=O)[C@H](C)NC(=O)CNC(=O)[C@H](Cc1ccccc1)NC(=O)[C@H](CC(N)=O)NC(=O)[C@@H]1CCCN1C(=O)[C@H](CO)NC(=O)[C@H](CO)NC(=O)[C@H](Cc1c[nH]cn1)NC(=O)[C@H](CCCNC(=N)N)NC(=O)[C@H](CC(C)C)NC(=O)[C@H](Cc1ccccc1)NC(=O)[C@H](Cc1c[nH]cn1)NC(=O)[C@H](C)NC(=O)[C@H](CC(C)C)NC(=O)[C@H](CCCNC(=N)N)NC(=O)[C@H](CCC(N)=O)NC(=O)[C@@H](NC(=O)[C@H](C)NC(=O)[C@@H]1CSSC[C@H](NC(=O)[C@@H](N)CCCCNC(=O)COCCOCCNC(=O)CC[C@H](NC(=O)CCCCCCCCCCCCCCCCCCC(=O)O)C(=O)O)C(=O)N[C@@H](CC(N)=O)C(=O)N[C@@H]([C@@H](C)O)C(=O)N[C@@H](C)C(=O)N[C@@H]([C@@H](C)O)C(=O)N1)[C@@H](C)O)C(=O)N1CCC[C@H]1C(=O)N[C@@H](CO)C(=O)N[C@@H](CO)C(=O)N[C@H](C(=O)N[C@@H](CC(N)=O)C(=O)N[C@H](C(=O)NCC(=O)N[C@@H](CO)C(=O)N[C@@H](CC(N)=O)C(=O)N[C@H](C(=O)N[C@@H](Cc1ccc(O)cc1)C(N)=O)[C@@H](C)O)C(C)C)[C@@H](C)O
notes: analogue of human amylin; also called compound 69

Biological target: T1, human calcitonin receptor (human, UniProt P30988 25-474)
T1 sequence (looked up): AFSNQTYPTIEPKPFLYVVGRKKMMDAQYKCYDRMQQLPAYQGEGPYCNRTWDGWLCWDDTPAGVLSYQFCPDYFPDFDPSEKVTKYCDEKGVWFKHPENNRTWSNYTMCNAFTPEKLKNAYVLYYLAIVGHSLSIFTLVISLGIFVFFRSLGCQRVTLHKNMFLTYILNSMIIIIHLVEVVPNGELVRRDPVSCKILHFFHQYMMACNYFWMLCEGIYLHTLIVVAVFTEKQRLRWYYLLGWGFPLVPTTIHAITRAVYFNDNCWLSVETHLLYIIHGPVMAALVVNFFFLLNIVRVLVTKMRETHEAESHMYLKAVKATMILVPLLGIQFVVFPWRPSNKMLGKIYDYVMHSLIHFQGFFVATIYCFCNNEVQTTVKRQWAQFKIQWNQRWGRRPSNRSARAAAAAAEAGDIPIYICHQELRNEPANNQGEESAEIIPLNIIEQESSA
Test: cell-based or functional assay

Point of comparison: B5, “hCTR funct. EC50” value 37.5 nM. Against it:
- B1 — 40-fold lower, 0.932 nM
- B2 — 39-fold lower, 0.961 nM
- B3 — 7.3-fold lower, 5.13 nM
- B4 — 4.1-fold lower, 9.07 nM
- B6 — 30-fold lower, 1.25 nM

Reference: patent US20140087995A1 (published 2014)
